Where a chain is given by its changes, count along the chain named. Names and notes keep the numbering of the source.
T1: mac251 gp120 (Immune Technology Corp.) (SIV mac251, UniProt P08810 20-527)
T1 construct: Coated on ELISA plates at 2 ug/mL; also called SIV mac251 gp120
T1 sequence: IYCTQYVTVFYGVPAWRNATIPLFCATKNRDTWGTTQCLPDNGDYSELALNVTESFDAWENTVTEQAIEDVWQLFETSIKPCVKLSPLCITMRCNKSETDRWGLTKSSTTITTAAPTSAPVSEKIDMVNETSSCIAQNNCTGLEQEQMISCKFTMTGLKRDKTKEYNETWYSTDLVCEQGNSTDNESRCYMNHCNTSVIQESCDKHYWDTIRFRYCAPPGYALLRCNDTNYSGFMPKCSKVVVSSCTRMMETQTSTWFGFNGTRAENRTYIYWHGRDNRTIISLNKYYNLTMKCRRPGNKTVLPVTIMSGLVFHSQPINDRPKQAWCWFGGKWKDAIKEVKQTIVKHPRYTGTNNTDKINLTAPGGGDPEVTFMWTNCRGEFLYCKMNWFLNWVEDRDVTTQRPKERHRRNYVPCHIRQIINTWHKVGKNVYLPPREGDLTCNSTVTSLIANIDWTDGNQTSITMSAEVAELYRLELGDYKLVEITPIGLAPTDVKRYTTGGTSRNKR

B1: rhesus macaque anti-SIV mac251 gp120 IgG-201 immunoadhesin (201IA) (Fc fusion)
chain: EVQLLESGPGLVKPSETLSLTCAVSGLSISSDFSWAWIRQTPGKALEYVGYIRGNTGDTYYNPSLKSRLTISKDTSKNQIYLNLSSVTAGDAAVYYCARDRVCDDDYGYYYTEVCFGLDSWGQGIVVTVSSGGGGSGGGGSGGGGSAELVMTQSPLSLSVAPGQTASISCRSSQSLDYANGNTYLSWFHQRPGQPPRRLIYQISNRDSGVPDRFSGSGAGTEFTLRISRMESDDVGIYYCGQGTTFPRTFGQGTKVEIKTCGGGSKPPTCPPCTSPELLGGPSVFLFPPKPKDTLMISRTPEVTCVVVDVSQEDPDVKFNWYVNGAEVHHAQTKPRETQYNSTYRVVSVLTVTHQDWLNGKEYTCKVSNKALPAPIQKTISKDKGQPREPQVYTLPPSREELTKNQVSLTCLVKGFYPSDIVVEWESSGQPENTYKTTPPVLDSDGSYFLYSKLTVDKSRWQQGNVFSCSVMHEALHNHYTQKSLSLSPGK
notes: also called 201 anti-SIV immunoadhesin; 201IA standard protein produced in-house
B2: 201IA(I253A) (Fc fusion)
chain: B1 chain with I297A
notes: No leader limits are stated; Expressed in HEK293 cells and purified on Protein A; also called I253A 201IA mutant

Biological target: T1, mac251 gp120 (Immune Technology Corp.)
Test: ELISA, mac251 gp120 coated at 2 ug/mL, immunoadhesin at 50 ng/mL, detected with anti-human IgG-biotin and streptavidin-HRP

Binder | binding result
B1 | binds
B2 | binds
